Test results reported in patent publication US20250075002A1.

Legend:
[1] = molecular target: MUC1 as expressed on normal activated human T cells (human) (UniProt P15941); experiment: FACS, PHA-L-activated human PBMC, live αβTCR+ gate, Donor 191180405C; antibody 10 µg/mL by paragraph 182
[2] = molecular target: MUC1 as expressed on normal activated human T cells (human) (UniProt P15941); experiment: FACS, PHA-L-activated human PBMC, live αβTCR+ gate, Donor 190980805C; antibody 10 µg/mL by paragraph 182
[3] = molecular target: Cyno MUC1 (full length), on cells (cyno); experiment: flow cytometry on HEK293/cyno MUC1 cells
Sequence of Cyno MUC1 (full length), on cells (cyno) (chain, as listed by the source limits assumed, form in doubt): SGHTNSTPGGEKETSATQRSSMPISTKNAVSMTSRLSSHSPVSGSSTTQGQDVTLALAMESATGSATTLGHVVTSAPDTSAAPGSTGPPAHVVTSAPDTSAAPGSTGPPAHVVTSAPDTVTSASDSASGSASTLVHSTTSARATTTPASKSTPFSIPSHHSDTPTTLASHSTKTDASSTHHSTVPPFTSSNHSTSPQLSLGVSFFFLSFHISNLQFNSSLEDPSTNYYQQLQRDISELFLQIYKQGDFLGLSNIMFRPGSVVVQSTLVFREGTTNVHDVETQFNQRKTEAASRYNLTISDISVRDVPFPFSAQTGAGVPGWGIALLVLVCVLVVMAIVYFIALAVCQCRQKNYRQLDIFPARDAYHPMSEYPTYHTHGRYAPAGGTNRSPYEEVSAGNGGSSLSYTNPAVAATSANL

Sequence of MUC1 as expressed on normal activated human T cells (human) (P15941 24-1255): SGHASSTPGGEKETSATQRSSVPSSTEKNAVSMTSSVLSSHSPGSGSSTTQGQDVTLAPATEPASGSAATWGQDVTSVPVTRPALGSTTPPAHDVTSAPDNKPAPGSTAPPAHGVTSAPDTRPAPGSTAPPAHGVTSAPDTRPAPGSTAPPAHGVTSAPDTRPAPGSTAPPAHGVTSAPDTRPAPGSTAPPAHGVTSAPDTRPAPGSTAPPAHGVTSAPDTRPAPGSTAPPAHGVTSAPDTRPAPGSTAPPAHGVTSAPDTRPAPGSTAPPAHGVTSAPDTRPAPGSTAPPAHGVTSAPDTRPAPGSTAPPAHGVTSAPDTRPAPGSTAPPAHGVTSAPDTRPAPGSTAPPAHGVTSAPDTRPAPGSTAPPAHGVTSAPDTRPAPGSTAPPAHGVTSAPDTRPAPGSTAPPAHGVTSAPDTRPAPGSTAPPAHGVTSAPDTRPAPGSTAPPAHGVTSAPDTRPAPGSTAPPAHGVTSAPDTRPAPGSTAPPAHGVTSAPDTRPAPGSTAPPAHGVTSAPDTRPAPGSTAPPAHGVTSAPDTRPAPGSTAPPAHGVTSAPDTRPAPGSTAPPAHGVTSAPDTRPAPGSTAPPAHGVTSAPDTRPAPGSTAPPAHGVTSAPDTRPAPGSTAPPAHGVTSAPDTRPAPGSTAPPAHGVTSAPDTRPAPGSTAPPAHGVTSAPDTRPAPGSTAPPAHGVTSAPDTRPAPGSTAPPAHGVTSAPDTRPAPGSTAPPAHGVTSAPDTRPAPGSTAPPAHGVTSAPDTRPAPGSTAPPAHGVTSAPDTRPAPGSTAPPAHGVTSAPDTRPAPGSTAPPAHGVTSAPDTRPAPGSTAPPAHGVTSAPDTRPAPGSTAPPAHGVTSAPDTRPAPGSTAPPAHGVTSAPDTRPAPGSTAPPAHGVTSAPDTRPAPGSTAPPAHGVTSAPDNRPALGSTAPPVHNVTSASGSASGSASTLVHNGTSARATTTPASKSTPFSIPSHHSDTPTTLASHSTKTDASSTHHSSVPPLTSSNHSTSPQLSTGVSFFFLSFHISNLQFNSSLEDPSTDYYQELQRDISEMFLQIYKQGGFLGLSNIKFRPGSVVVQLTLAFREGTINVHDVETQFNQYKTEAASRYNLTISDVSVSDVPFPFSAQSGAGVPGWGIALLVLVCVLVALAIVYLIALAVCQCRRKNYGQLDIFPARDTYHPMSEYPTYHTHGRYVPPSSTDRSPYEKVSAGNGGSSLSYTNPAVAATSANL

B1: huBG138P-Hz4 (antibody, from another filing, V domains shown)
VH: QVQLVQSGAEVKKPGASVKVSCKASGYTFTTYTMHWVRQAPGQGLEWMGYINPGSDYTHYNQKFKDRVTITADKSASTAYMELSSLRSEDTAVYYCARQGNYAAYYFDYWGQGTLVTVSS
VL: DIQMTQSPSSLSASVGDRVTITCRASGNIHNFLVWYQQKPGKSPKLLIYNAKTLTSGVPSRFSGSGSGTQYTLTISSLQPEDVATYYCQNFWNVPFTFGQGTKLEIK
Work on B1 yielded a percent of αβTCR+ cells in the MUC1-positive gate (dashed box) [1] of 2.3% and a percent of αβTCR+ cells in the MUC1-positive gate (dashed box) [2] of 2.4%.

B2: chBG138P (antibody, V domains shown)
VH: QVQLLQSGAELARPGASVKMSCKASGYTFTTYTMHWIKQRPGQGLEWIGYINPGSDYTHYNQKFKDKATLTADKSSSTAYMHLYSLTSEDSAVYYCARQGNYAAYYFDYWGQGTTLTVSS
VL: DIQMTQSPASLSASVGETVTITCRASGNIHNFLVWYQQKQGKSPQLLVYNAKTLTDGVPSRFSGSGSGTQYSLKIKSLQPEDFGTYYCQNFWNVPFTFGSGTKLEIK
Binder B2 has an EC50 [3] of 7.55 nM.

B3: chBG346P (antibody, V domains shown)
VH: EVQLQQSGAELVKPGASVKISCKASGYTFTNYWMNWVRQRPGQGLEWIGEIDPSDSYTNNNQKFKDKATLTVDKSSSTAYMQLSSLTSEDSAVYYCARGRRTGFAYWGQGTLVTVSS
VL: DIQMTQSPASLSVSVGETVTITCRASENIYSNLAWYQKKQGKSPQLLVYAATNLADGVPSRFSGSGSGTQYSLKINSLQSEDFGNYYCQHFWGTPYTFGGGTKLEIK
Work on B3 yielded an EC50 [3] of 41.8 nM.

B4: chBG219P (antibody, V domains shown)
VH: EVQLVESGGGLVKPGGSLKLSCAASGFTFNDYIMSWVRQTPEKRLEWVATVSSGGDNTYYPDSVKGRFTISRDNAKNNLYLQMSSLRSEDTALYYCTRYGGLGAMDYWGQGTSVTVSS
VL: DIVMTQSPASLSASVGETVTITCRASGNIHNYLTWYQQKQGKSPQLLVYNAKTLADGVPSRFSGSGSGPQYSLKINSLQPEDFGSYYCQHFWSVPYTFGGGTRLEIK
B4 was tested, and the EC50 [3] was 12.7 nM.
